The results in this text go back to PMC10828781, “Genome variation and LTR-RT analyses of an ancient peach landrace reveal mechanism of blood-flesh fruit color formation and fruit maturity date advancement”.

The series concerns the target PpBL (Prunus persica, UniProt M5WDM1 1-437). The series is described as follows: EMSA; 5x, 10x, 50x competitor probe; EMSA: room temperature 30 min, 6% native PAGE in 0.5x TBE at 4 C, 60 V 1 h, binding buffer not stated; pull-down: 1 ug DNA-bead complex with 300 ul nuclear proteins, 20 min room temperature. To be noted: protein: recombinant; (pGEX-6p-1 vector); label: biotin.

Chain of PpBL (M5WDM1 entry or part of it): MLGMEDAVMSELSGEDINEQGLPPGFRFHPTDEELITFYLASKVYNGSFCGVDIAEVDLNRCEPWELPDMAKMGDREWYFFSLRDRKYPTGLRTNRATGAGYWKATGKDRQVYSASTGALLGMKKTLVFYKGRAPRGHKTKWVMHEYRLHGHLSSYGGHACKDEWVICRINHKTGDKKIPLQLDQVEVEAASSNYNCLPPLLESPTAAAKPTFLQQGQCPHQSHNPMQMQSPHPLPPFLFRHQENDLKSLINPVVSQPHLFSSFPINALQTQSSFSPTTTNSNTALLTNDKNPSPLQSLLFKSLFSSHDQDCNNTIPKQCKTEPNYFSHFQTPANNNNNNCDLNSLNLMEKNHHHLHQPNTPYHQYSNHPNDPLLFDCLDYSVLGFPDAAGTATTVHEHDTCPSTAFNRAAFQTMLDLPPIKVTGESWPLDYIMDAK

B1: PpACS1 promoter probe (dsDNA)
DNA 1: TACAACACGCAAGCAATTAC
DNA 2: GTAATTGCTTGCGTGTTGTA
Take B1: the binding result is on record as “binds”.

B2: PpACO1 promoter probe (dsDNA)
DNA 1: ACAGTAATTTGCTTGCTTTC
DNA 2: GAAAGCAAGCAAATTACTGT
In the case of B2, the binding result is listed as “binds”.
